The values below come from a protein production outcome set (Wang et al. 2014).
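Also: failed if final PepcDB status was selected cloned or expressed and not failed if soluble or beyond.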

The data set can be described thus: label from the status in PepcDB records.
In the case of “MTDLSARDRLAPDSSPRLLALASIALEAGALARQSLRRRHVDQMVSKGPRDYQTEIDVAVERLIVAGVSEAFPDHAIQGEEETGNRTGGPDAPVIYIDPIDGTTNFAWGLPHFGMTIAIAEQGKITCGVVYDSMLDELFSAEIGKGATLNGEKLRCADVADVQNVLVGAGLPVPGQVKSVDEELYHRALRRLMDNTAGVRRLGSAALSIAYVACGRLDGFFEDGLQVHDYGAAALILTEAGGVVTGFGGMPVDAGGGILAASPALHPWLLAGFQPGMDR”, the protein production entry is reported as “failed”.

As to “MTDNKIKNEDGKLELIINAAQKRFAHYGLCKTTMNEIASDVGMGKASLYYYFPDKETLFEAVIKKEQNVFFDEMDKILNSGIDATALLKKYVKLRSLHFRHLLNLSKLRSDFFHNTKPVFAKAFESFKQKEVEIVAGIIQYGITTKEFKRGNKHENAEFLVHLLLGVRMVKLKYKEINDFDESDYEDLDKNMCKVAGMFLKEIQTEVASR”, the protein production result is recorded as “not failed”. “MTDNLINNGTKTTPEAEILTAASNSRSSDAQHDDTAPAGEVLLDIDPDELLSDPAEKEETSAQDIALPDHVAGSGSLDRLIDQARDYAEAATAENTNKAYKADWKHFTGWCRRKGVDALVPSPAVIGLYISDCAKPQDGSPALSVSTIERRLSGLAANYRQRGLALDMKDRHIASVWAGIKRHHAKPPTQKEAVLIEDVLAMVGALSYSLRDLRDRAILLIGYAGGLRRTEIVGLDVGKDESDDGRGWVEILEGGAVLHIKGKTGWREVEIGRGSADQTCPVYALEQWLHYAKIDVGSVFRQVFRDNSRIGPERLSDKHVVRLIKRLVLETGVGLDRPALSKLSDEERAKFFAGHSLRAGLASGAEVDERYVQKQLGHASAEMTRRYQRRRDRFRVNLTKAVGL”: the protein production entry was “failed”. To “MTDNNQNNENHENSSENSKADEMRAGAFERFTNRKKRFRENAQKNAEYSNHEASSHHKKEHRPNKKPNNHHKQKHAKTRNYAQEELDSNKVEGVTEILHVNERGTLGFHKELKKGVEANNKIQVEHLNPHYKMNLNSKASVKITPLGGLGEIGGNMMVIETPKSAIVIDAGMSFPKEGLFGVDILIPDFSYLHQIKDKIAGIIITHAHEDHIGATPYLFKELQFPLYGTPLSLGLIGSKFDEHGLKKYRSYFKIVEKRCPISVGEFIIEWIHITHSIIDSSALAIQTKAGTIIHTGDFKIDHTPVDNLPTDLYRLAHYGEKGVMLLLSDSTNSHKSGTTPSESTIAPAFDTLFKEAQGRVIMSTFSSNIHRVYQAIQYGIKYNRKIAVIGRSMEKNLDIARELGYIHLPYQSFIEANEVAKYPDNEILIVTTGSQGETMSALYRMATDEHRHISIKPNDLVIISAKAIPGNEASVSAVLNFLIKKEAKVAYQEFDNIHVSGHAAQEEQKLMLRLIKPKFFLPVHGEYNHVARHKQTAISCGVPEKNIYLMEDGDQVEVGPAFIKKVGTIKSGKSYVDNQSNLSIDTSIVQQREEVASAGVFVATIFVNKNKQALLESSQFSSLGLVGFKDEKPLIKEIQGGLEVLLKSSNAEILNNPKKLEDHTRNFIRKALFKKFRKYPAIICHAHSF” belongs “failed”. To “MTDNRKFEIVADTELPGTPERVWQAVTKDTPAWMFPTDQWPDVKTTEEYPSHLVSRMDGPDGWFNQLEHVLEPLEGGRAKLHYVHSGIFADNWDEQYDGASKHTEFYLHTLGQYLQHFDGKPVVFTDIQAPPSSQAPDGFVQLKQALGVDGLPTGTSVDVDIDGVGRLSAEVDFSNENFLGLRTADTMYRFFGRNVFGAPVGMTVHEFSGSGDSELTAKAWGAFLEKVYALEHHHHHH” belongs “failed”. The value for “MTDNRPCRKDLLDWINVVSFAVDDVKLFLDTHPCNKEAMEFFDEFKKQRVQALKEYAKYYGPLTLDTASTCTERWNWINEPWPWQEGGCLEHHHHHH” was “failed”. Regarding “MTDPSSTLRLRGLLAEIVAAPLTRTVALLALCSAYIQGPLTKIFDFPGAIAEMNHFGLQPAAAFAVFVIIFELTASAMVVTGVLRWVGALALSGFTLLATFIALRFWEMAPGMDRMMATNAFFEHLGLAGAFVIVAAIDLTKGTGK”, the protein production entry is listed as “not failed”.

On to “MTDRIMALVDGSGFSRSVCLHAAWLAQRLELPVDLLHVLGRREAADRGDLSGALQLGARTALLEELAALDAERARLAQAQGRAILEDAQAILAAESVETTPHLRQGDLIDTVAGFERSGRALVVGKRGRAAGFASAHLGSNLERLLRASKLPVLIVPADCR”, for which the protein production entry is “failed”.

Turning to “MTDYFHLHFNKGEFNAENLFIELKGNFAVYGSRWYFGESIETLKGTARTLDKADGAISLEDGIISRNGIALLDDSQGFIWDEQSGYIERENQIDLYFFAYGHDYRGAIRDFYHLTGSTPLLPRYALGNWWSRYWPYTSDEYLDLIDRFETEKIPLSIGVLDMDWHITDIPARFGSGWTGYSWNRNLIPNPEQLLQQLHDRKLKLSLNVHPADGIRAYEEAYPQIAKRLGLNVELEEPAIFDFFNPSFREAYFKDVHYELEKQGVDFWWIDWQQGTQGMLDPLWLLNHYHYQDSCKNAEGGLILSRYAGPGSHRYPVGFSGDTIISWNSLRFQPYFTATASNIGYSWWSHDIGGHMLGDYDEELQTRWLQFGVFSPITRLHSSRSPFNSKEPWFFSETTSKIMKKYLRLRHQMIPYLYTMNVQTHEEGAPLISPIYYFYPENDESYNVPNQYFFGTELMVAPIVEKMDLTFQSAKVDVWFPEGEWYDFFSEKKYTGGVKLSVYRDISTTPVFAKSGAIIPLVGSEIGMGVDLPEVVDWYVFPGKQHSFEMLEDQNGQRYKTRLSIDWEMGMVELALQGDSSIVPSNRKHRIHFKGTNVSIIELPNKNDTAKFEWKDNKRTSLNDEVFRLLKTASLPYELKDRLLNQFINAKNSHDLMNILHHQDKELRGRLLEMIFTSQNLEHHHHHH”, the protein production entry is given as “failed”.

Turning to “MTDYVNYNQERWNRVSARQGNAYTVPLSHEEFLVAKDKPLSVSLTVGKTVPLDWFEKAKGKKLLGLACGGGQQGPISAAHSYETTILDFSKEQLDKDRLVAERENLDLQTVQADMTQAFPFEDESFDIIFCPVSNIYIEDLANMWQESYRVLKKGGLLMVGYMNPWIYVFDADDVWEHPDKTLVPKYSLPFNARQLEEAGQITIDPEYGYEFSHTLEEQIAGQLRAGFAMIDFYESKDSRNRLTQFASDYLANLSMKW”, the protein production entry is “failed”.

In the case of “MTEARAGLFARRRYLPALAVLYAALWLALAIEPHDRSDWLLENALVLGFGVALYATRRWFVFSRVSYTLIFLYLCLHAVGAHYTYSLVPYDAWWQRLTGHSLDQLLGWERNQFDRLVHFSYGLLLAYPIREIFLRVVDVRGFWGYLLPLDVALSTSALYELIEWGAAEFFGGELGVAYLGTQGDIWDAQKDMALAGLGALIAMLLTALFNRGARRDPARDWVDRMKPGHT”, the protein production entry is reported as “failed”. To “MTEASAPLIDVDPRLLEVLVCPVTRGPLEYDRAKGELISRAAKLAYPIRDGVPIMLPEEARELEGLEHHHHHH” belongs “not failed”. To “MTEDQVEILEYNFNKVNKHPDPTTLCLIAAEAGLTEEQTQKWFKQRLAEWRRSEGLPSECRSVTD” belongs “not failed”; to “MTEDRLSAEDKKFLEVERALKEAALNPLRHATEELFGDFLKMENITEICYNGNKVVWVLKNNGEWQPFDVRDRKAFSLSRLMHFARCCASFKKKTIDNYENPILSSNLANGERVQIVLSPVTVNDETISISIRIPSKTTYPHSFFEEQGFYNLLDNKEQAISAIKDGIAIGKNVIVCGGTGSGKTTYIKSIMEFIPKEERIISIEDTEEIVFKHHKNYTQLFFGGNITSADCLKSCLRMRPDRIILGELRSSEAYDFYNVLCSGHKGTLTTLHAGSSEEAFIRLANMSSSNSAARNIKFESLIEGFKDLIDMIVHINHHKQCDEFYIKHR”, “not failed”; to “MTEEHVVLLDEQDKPSGTLEKYAAHTLNTPLHLAFSCWLFNEDGQLLVTRRSLSKKAWPGVWTNSVCGHPQQGETTEEAIIRRCRFELGVEITDLTPVYPHFSYRATDPNGIVENEVCPVFAARATSVLQVNSEEVMDYQWSEFKSVWKSLLATPWAFSPWMVMQASDEQARERLLNYCQR”, “not failed”. For the sequence “MTEGLAVELAGLRSFSIVMPAYNVVTQRGERIFRETLESIAASCRYLQQHFPYTPEGELILISDGSTDRTCDVAMAGWPNAVPLQLVGLPTNVGIAAARNIGVRLAKGEVIFFCDADDLYRPEHLFLALSVLNQPLPEPYAPAYFGAVRTGVYCRDRLHPYWHKSLEQTLVLNLAVRREVHEFIGGFPEDEVFRQFRYGAEDVAYAYWLHQFCHTARLEQRTVEYRRFPNSVFDRQLKKFQAAPGTVADDLDEGDRQQEAQIRQIMATRLQELQAKAAQGVALEHHHHHH”, the protein production result is “failed”. As to “MTEHSLWRFSRALHRALNDRQTEELATIIDDNIDWAIYGPIDMFPFFGARQGKAAVLEVCRQIADSVRIYRYHRESVMLGIDSAASMVRYSLTAAGTNRPISVRMALFTQFQNGRLTNLRMVLDTFDLVEQALGRPIHLPKIA”, the protein production result is given as “not failed”. The value for “MTEIALIGNPNSGKTSLFNLLTGTSQRVGNWPGVTVERKSGNVKKLKEISVQDLPGIYSMSPYSPEEKVARDYLLSNHADSILNVVDATNLERNLYLTTQLIETGIPVTIALNMSDVLKNQGKSINSDKLAYQMGVPVVATSALKNTGVDKAVKKASQTTKGSVDSVQYPTYDAKFEAAIAQIIEVLGQTVPERSSRFYAIKLFERDRLVEEELDLSPFQKKEIKDIIQITEEVFTEDSESIVINQRYAFIERVSQMAQSQDNDFKMSASDKIDKIVTNRVLALPIFAVVMFLVYYLSIQTVGTMGTDWVNDILFGKYVPEFVTGVLEALKVQAWLQSLIIDGVVAGVGTVLGFLPQIFVLFICLGILEDIGYMSRIAFVMDRIFRRFGLSGKSFIPMLISTGCGVPGIMASRTIENERDRRITIMTTTFMPCSAKLSVIALIAGAFFPHNPWIAPSAYFMGMIAIILSGIALKKTSFLGGYTSPFIMELPSYHLPKVDAVLRYAFGKAMSFVKRAGTIIFSLTVLIWFMSSYNFTLHSVDTENSILASLGRLLAWIFTPLGFGNWKATVAALTGLAAKETVVATFGILYNNPDATETTHSLWVSLQGDYTALAAYSFLTFNLLCAPCFASIGAIKREMGNLKWTLVAIAYQTGLAYLVSLIIYQLGLVAFYGKPVTLWTGLALVLLLVMLYFIIRKPRQVKEKVITLDNLSLSHN” was “failed”.

On to “MTEIDSNLKDAQSVAVSGHVRPDGDCVGSTLAVYNYIKDYYPDIKARLYLEPSPNIFKFMQRADEIDSSYADDTVYDLFIACDCSDTGRLGSAAKYFESAKRTLCIDHHVTNGAFADTNYIFPDASSTCELVFELLPKERITIQIAECIYTGMVHDTGVFQYSCTSKKTMDIAGSLMEMGIDYSRIIDDTFYTKTFAQNKIMGQALLNAALYLNGDVILSAVSRAEMEKYDVLPKHLDGIVNQLRVTKDIKVAVFLYENEDGTYKGSLRVNGDYDVAKVASVFGGGGHVKAAGFTIEGPLEVATDRILTAIKDNI”, for which the protein production result was “failed”. With “MTEIKYKVITKDAFALPYTIIKAKNQPTKGVIVYIHGGGLMFGKANDLSPQYIDILTEHYDLIQLSYRLLPEVSLDCIIEDVYASFDAIQSQYSNCPIFTFGRSSGAYLSLLIARDRDIDGVIDFYGYSRINTEPFKTTNSYYAKIAQSINETMIAQLTSPTPVVQDQIAQRFLIYVYARGTGKWINMINIADYTDSKYNIAPDELKTLPPVFIAHCNGDYDVPVEESEHIMNHVPHSTFERVNKNEHDFDRRPNDEAITIYRKVVDFLNAI”, the protein production entry is given as “failed”.

In the case of “MTEIYTSVLSYRLLEGKAYSDADTRSLDRMMRSIDEFFSANPGYINFHIYRSYRTDSDVIFWYSSRNPDLMILAKERVQASMRPIAVSSFSSISIYDESPYNAMNKKLEDSLRLPPLRYFVAYPMSKTPDWYLLDFDTRKEIMHEHIKMALNHPDEKGIRSYTTYSFGIGDQEFVVLYEIPDIAAWSRVTEKLREARARKWIIKETPILLGRLVDAGDIAGFLL”, the protein production entry is recorded as “not failed”.
